Source: patent publication US20260240999A1, “METHODS FOR EX VIVO ENRICHMENT AND EXPANSION OF TUMOR REACTIVE T CELLS AND RELATED COMPOSITIONS THEREOF” (H. LEE MOFFITT CANCER CENTER AND RESEARCH INSTITUTE, INC., priority 2022, published 2026)

B1: IL-23: recombinant cytokine, P19 (SEQ ID NO: 1) and P40 (SEQ ID NO: 2) subunits (protein)
chain 1: RAVPGGSSPAWTQCQQLSQKLCTLAWSAHPLVGHMDLREEGDEETTNDVPHIQCGDGCDPQGLRDNSQFCLQRIHQGLIFYEKLLGSDIFTGEPSLLPDSPVGQLHASLLGLSQLLQPEGHHWETQQIPSLSPSQPWQRLLLRFKILRSLQAFVAVAARVFAHGAATLSP
chain 2: IWELKKDVYVVELDWYPDAPGEMVVLTCDTPEEDGITWTLDQSSEVLGSGKTLTIQVKEFGDAGQYTCHKGGEVLSHSLLLLHKKEDGIWSTDILKDQKEPKNKTFLRCEAKNYSGRFTCWWLTTISTDLTFSVKSSRGSSDPQGVTCGAATLSAERVRGDNKEYEYSVECQEDSACPAAEESLPIEVMVDAVHKLKYENYTSSFFIRDIIKPDPPKNLQLKPLKNSRQVEVSWEYPDTWSTPHSYFSLTFCVQVQGKSKREKKDRVFTDKTSATVICRKNASISVRAQDRYYSSSWSEWASVPCS
modifications: P19, UniProt Q9NPF7 20-189; P40, UniProt P29460 23-328
B2: IL-7: recombinant cytokine (protein, UniProt P13232 26-177, looked up)
Interleukin-7: DCDIEGKDGKQYESVLMVSIDQLLDSMKEIGSNCLNNEFNFFKRHICDANKEGMFLFRAARKLRQFLKMNSTGDFDLHLLKVSEGTTILLNCTGQVKGRKPAALGEAQPTKSLEENKSLKEQKKLNDLCFLKRLLQEIKTCWNKILMGTKEH
B3: IL-35: heterodimeric protein of p35 subunit from IL-12 and EBI3 (protein, UniProt P29459 23-219; Q14213 21-229, looked up)
Interleukin-12 subunit alpha: RNLPVATPDPGMFPCLHHSQNLLRAVSNMLQKARQTLEFYPCTSEEIDHEDITKDKTSTVEACLPLELTKNESCLNSRETSFITNGSCLASRKTSFMMALCLSSIYEDLKMYQVEFKTMNAKLLMDPKRQIFLDQNMLAVIDELMQALNFNSETVPQKSSLEEPDFYKTKIKLCILLHAFRIRAVTIDRVMSYLNAS
Interleukin-27 subunit beta: RKGPPAALTLPRVQCRASRYPIAVDCSWTLPPAPNSTSPVSFIATYRLGMAARGHSWPCLQQTPTSTSCTITDVQLFSMAPYVLNVTAVHPWGSSSSFVPFITEHIIKPDPPEGVRLSPLAERQLQVQWEPPGSWPFPEIFSLKYWIRYKRQGAARFHRVGPIEATSFILRAVRPRARYYVQVAAQDLTDYGELSDWSLPATATMSLGK
B4: IL-27: recombinant cytokine, heterodimer of IL27A (p28) and EBI3 (protein, UniProt Q8NEV9 29-243; Q14213 21-229, looked up)
Interleukin-27 subunit alpha: FPRPPGRPQLSLQELRREFTVSLHLARKLLSEVRGQAHRFAESHLPGVNLYLLPLGEQLPDVSLTFQAWRRLSDPERLCFISTTLQPFHALLGGLGTQGRWTNMERMQLWAMRLDLRDLQRHLRFQVLAAGFNLPEEEEEEEEEEEEERKGLLPGALGSALQGPAQVSWPQLLSTYRLLHSLELVLSRAVRELLLLSKAGHSVWPLGFPTLSPQP
Interleukin-27 subunit beta: B3 Interleukin-27 subunit beta

Experiments:
[1] = test system: previously expanded human T cells from three healthy donors; assay: Cytokines, modulators and agonist antibodies with IL-2 on T cell number and memory phenotype; format: cell-based; settings: for percent naïve and central memory T cells at Day 6: cytokine plus 300 IU/mL IL-2; for CD3+ cells/mL on Day 6: cytokine plus 300 IU/mL IL-2 vs IL-2 alone
Experimental: PBMC from three healthy donors were activated, expanded, and cryopreserved as described in Example 11. […] As previously described, stimulation of the healthy donor T cells prior to cryopreservation were carried out with anti-CD3 (OKT3) stimulation in order to mimic conditions present in the tumor microenvironment (TME).
Cells were next seeded into gas permeable 100M culture vessels and expanded for 7-14 days to achieve a large bank of T cells, and cryopreserved.
Cells were maintained in culture for 6 days, with a 50% medium exchange occurring at 3 days post culture initiation.
At the end of the culture period for all culture conditions, cells were assessed for cell count and sub-phenotypes of naïve and central memory T cells by flow cytometry by staining with CD45RA and CCR7 (naïve, CD45RA+ CCR7+; “central” memory, CD45RA-CCR7+).

[2] = test system: previously expanded human T cells from three healthy donors; assay: Effect of T cell adjuvants on T cell viability (total viable CD3+ cell count); format: cell-based; settings: 62.5 IU/ml-1000 IU/ml
Experimental: Cells were expanded from PBMC derived from Ficoll gradient separation from three healthy donor's apheresis material. […] Because the studies were carried out in healthy donors, stimulation of the T cells was carried out with anti-CD3 (OKT3) stimulation in order to mimic conditions present in the tumor microenvironment (TME).
Cells were next seeded into gas permeable 100M culture vessels and expanded for 7-14 days to achieve a large bank of T cells, and cryopreserved. […] Half of wells were additionally supplemented with 50 ng/mL OKT3, a human anti-CD3 monoclonal antibody. In total, 15 test adjuvant agents were tested for their impact on cell viability in the presence and absence of anti-CD3 activation (see Table E3). Cells were cultured for 6 days total, including a 50% medium exchange on culture day 3, and monitored for total viable CD3+ cell count.

[3] = at each of three tested concentrations (3.9, 250, and 1000 IU/mL)

| Molecule | percent naïve and central memory T cells at Day 6 [1] | CD3+ cells/mL on Day 6 [1] | dose response of cell number [2] | CD3+ cell number [1, 3] | percent naïve and central memory T cells [1, 3] |
| --- | --- | --- | --- | --- | --- |
| B1 | measured increase in the percent naïve and central memory T cells | increase in CD3+ cells/mL on Day 6 | – | – | – |
| B2 | measured increase in the percent naïve and central memory T cells | increase in CD3+ cells/mL on Day 6 | dose dependent response, wherein cell number increased with increasing concentration | – | – |
| B3 | measured increase in the percent naïve and central memory T cells | increase in CD3+ cells/mL on Day 6 | – | – | – |
| B4 | measured increase in the percent naïve and central memory T cells | increase in CD3+ cells/mL on Day 6 | – | significant increase in CD3+ cell number | significant increase in CD3+ cell number as well as percent naïve and central memory T cells |
